Measurements reported in publication PMC9927553.
Where a chain is given by its changes, count along the chain named.

Tests used:
[1] = target: T1, LexA (E. coli) (Escherichia coli MG1655) (UniProt P0A7C2); test: EMSA; details: EMSA: 40 ng DNA probe, 0-600 ng LexA, binding buffer E (composition not stated; Thermo E33075 EMSA kit), 10 uL, 20 min on ice; 6% native Tris-glycine PAGE …
T1 sequence: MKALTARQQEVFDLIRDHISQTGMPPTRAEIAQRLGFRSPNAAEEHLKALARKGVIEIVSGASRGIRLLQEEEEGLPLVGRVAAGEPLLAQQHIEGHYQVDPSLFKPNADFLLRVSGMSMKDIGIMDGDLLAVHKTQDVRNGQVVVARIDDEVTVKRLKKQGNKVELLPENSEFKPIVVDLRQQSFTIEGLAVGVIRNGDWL

[2] = target: T2, LexA (Salmonella) (Salmonella enterica serotype Agona strain 47SA97) (UniProt B5F1Q6); test: EMSA; details: EMSA: 40 ng DNA probe, 0-600 ng LexA, binding buffer E (composition not stated; Thermo E33075 EMSA kit), 10 uL, 20 min on ice; 6% native Tris-glycine PAGE …
T2 sequence: T1 sequence with I56L, E74D, N108S, K175T, Q183E, D200E

Sequence: ACACACCTGATTTATTCACTGATTAACTTTGTCATCAATCATAAATACCATGACTTTTTGATAATGCAACGCCAAATAAGTTGTTTTTTTACAGTATCATTTTATGGTGCTATGAAGATTTGCATTTCTGAACGATAATCTATAATCGGTTACATATTAATCAGGAGGCGT (double strand) [PsgaDC* probe]
- binding [1]: no binding
- binding [2]: no binding

Sequence: AGTTGTTCCGCAGTAGCCATTATTCAATCTCCATAAGACGGGGCAACTTTACCAATTTTATACAATAAAGTCTGTGTAGTATGACAGGGTTTAAGCACTTAATCCCCTCTAGAATTTTGTACACTCACCACCCCTACATGATTATAAATAGTCGTTCTAGATACACCATATCGCCTAGCAACA (double strand) [PsgiAT probe]
- binding [1]: no binding
- binding [2]: no binding

Sequence: ACACACCTGATTTATTCACTGATTAACTTTGTCATCAATCATAAATACCATGACTTTTTGATAATGCAACGCCAAATACTGTGTTTTTTTACAGTATCATTTTATGGTGCTATGAAGATTTGCATTTCTGAACGATAATCTATAATCGGTTACATATTAATCAGGAGGCGT (double strand) [PsgaDC probe]
- binding [1]: binds
- binding [2]: binds
